This note sets out measurements from paper PMC3258154.

The test deals with eIF3 from HeLa cells (human (endogenous in HeLa)) (UniProt Q14152). In words: native gel or EMSA. On the technique in general: Mobility shift assays separate free from complexed probe on a gel.

In turn, “eIF2 from HeLa cells (from UniProt P05198 1-315; P20042 1-333) (complex)” displayed a concentration below which the complex starts to dissociate of 200 to 300 nM.
